From patent US20030130484A1, “Inhibitors and disassemblers of fibrillogenesis” (priority 2001, published 2003) come the findings set out here.

Like-named read-outs stand apart in the source and are kept apart here.

The target of experiment [1] is human Aβ1-40 peptide (human). Briefly: cell-based or functional assay.
Experiment [2] deals with human Aβ1-40 peptide (human). Description: cell-based or functional assay. This is another data set of the same source.
The target of the next experiment is Aβ16-22m. Briefly: size exclusion chromatography, self-association. On the technique in general: SEC sorts molecules by how far they enter the pores of the column.

For KLVFF (modifications not checked) [Aβ16-20], in experiment [1], the Inhibition IC50 (thioflavin T assay) (inhibitor:Aβ1-40 ratio) turned out to be 9.7 and the Inhibition ICmax amounted to 100%. Moreover, in experiment [2], the Inhibition IC50 (thioflavin T fluorescence) (inhibitor to Aβ40 molar ratio) is 5.3 and the Inhibition ICmax came out at 89%.
On to KLVFFAE (modifications not checked) [Aβ16-22m], for which, in the experiment with Aβ16-22m, the percent oligomer (% oligomer (at 0.1 mg/ml)) fell in the range of 1 to 91 and the percent oligomer (% oligomer (at 6 mg/ml)) is 1 to 91. In experiment [2], the IC50 of inhibition of fibrillogenesis (thioflavin fluorescence) (inhibitor:Aβ40 ratio) came to 4, the Inhibition of Fibrillogenesis IC50 (thioflavin fluorescence) (inhibitor:Aβ40 molar ratio) stood at 4.2, the Inhibition of Fibrillogenesis ICmax came out at 100% and the Inhibition of Fibrilogenesis IC50 (µM) was 4.2 µM. In experiment [2], this molecule had an Inhibition of Fibrilogenesis ICmax (%) of 100% and a molar excess giving complete elimination of thioflavin fluorescence (fold molar excess) of 30.
For ELVFFAK (modifications not checked) [Aβ16-22mR], in experiment [2], the IC50 of inhibition of fibrillogenesis (thioflavin fluorescence) (inhibitor:Aβ40 ratio) was determined as 9, the Inhibition of Fibrillogenesis IC50 (thioflavin fluorescence) (inhibitor:Aβ40 molar ratio) amounted to 7.8, the Inhibition of Fibrillogenesis ICmax worked out at 100% and the Inhibition of Fibrilogenesis IC50 (µM) is 7.8 µM. In addition, in experiment [2], the Inhibition of Fibrilogenesis ICmax (%) is 100% and the ratio giving complete elimination of thioflavin fluorescence (inhibitor:Aβ40 ratio) is 50.
For the molecule KLVFF (modifications not checked) [Aβ16-20m], the Inhibition IC50 (thioflavin T assay) (inhibitor:Aβ1-40 ratio) in experiment [1] came to 6.9. In addition, in experiment [2], the Inhibition IC50 (thioflavin T fluorescence) (inhibitor to Aβ40 molar ratio) is 6.5, the Inhibition ICmax was 100%, the Inhibition of Fibrilogenesis IC50 (µM) is 0.4 µM and the Inhibition of Fibrilogenesis ICmax (%) came to 100%.
Take KLVFF (modifications not checked) [Aβ16-20e]: in experiment [1], the Inhibition IC50 (thioflavin T assay) (inhibitor:Aβ1-40 ratio) was found to be 3.7 and the Inhibition ICmax was found to be 100%.
